{"source": "paper PMC8545111", "about": "“Molecular Basis of the Versatile Regulatory Mechanism of HtrA-Type Protease AlgW from Pseudomonas aeruginosa” (mBio, 2021)", "binders": {"B1": {"name": "decapeptide SVRDELRWVF (MucE C-terminal tail) (peptide)", "peptide": "SVRDELRWVF", "notes": "C-terminal decapeptide of the periplasmic protein MucE of Pseudomonas aeruginosa; also called C-terminal decapeptide of MucE"}}, "key": {"AlgW-R347A": {"biological_target": "T1, AlgW-R347A (Pseudomonas aeruginosa, UniProt Q9HVX1 30-389, R347A)", "T1 sequence": "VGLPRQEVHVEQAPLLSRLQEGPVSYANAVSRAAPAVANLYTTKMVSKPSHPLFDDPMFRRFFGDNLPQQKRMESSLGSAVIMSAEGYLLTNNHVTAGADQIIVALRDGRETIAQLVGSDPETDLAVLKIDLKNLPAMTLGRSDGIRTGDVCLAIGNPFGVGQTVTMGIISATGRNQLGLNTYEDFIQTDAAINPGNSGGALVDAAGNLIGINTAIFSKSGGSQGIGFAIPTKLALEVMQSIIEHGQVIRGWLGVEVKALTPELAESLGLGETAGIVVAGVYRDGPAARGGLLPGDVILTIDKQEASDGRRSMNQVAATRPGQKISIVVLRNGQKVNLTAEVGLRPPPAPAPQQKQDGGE", "assay": "cell-based or functional assay"}, "AlgW-E266A": {"biological_target": "T2, AlgW-E266A (Pseudomonas aeruginosa, UniProt Q9HVX1 30-389, E266A)", "T2 sequence": "T1 sequence with E237A, A318R", "assay": "cell-based or functional assay"}, "AlgW-Y212A": {"biological_target": "T3, AlgW-Y212A (Pseudomonas aeruginosa, UniProt Q9HVX1 30-389, Y212A)", "T3 sequence": "T1 sequence with Y183A, A318R", "assay": "cell-based or functional assay"}, "AlgW-E285A": {"biological_target": "T4, AlgW-E285A (Pseudomonas aeruginosa, UniProt Q9HVX1 30-389, E285A)", "T4 sequence": "T1 sequence with E256A, A318R", "assay": "cell-based or functional assay"}, "AlgW-L282A": {"biological_target": "T5, AlgW-L282A (Pseudomonas aeruginosa, UniProt Q9HVX1 30-389, L282A)", "T5 sequence": "T1 sequence with L253A, A318R", "assay": "cell-based or functional assay"}, "AlgW-E151A": {"biological_target": "T6, AlgW-E151A (Pseudomonas aeruginosa, UniProt Q9HVX1 30-389, E151A)", "T6 sequence": "T1 sequence with E122A, A318R", "assay": "cell-based or functional assay"}, "[1]": {"biological_target": "T7, AlgWS227A (inactive mutant of the periplasmic soluble domain of AlgW, for crystallization) (Pseudomonas aeruginosa, UniProt Q9HVX1 52-389, S227A)", "T7 construct": "AlgW of Pseudomonas aeruginosa, residues 52-389 (construct for crystallization), catalytic serine S227 changed to alanine; source: E. coli BL21(DE3), purified (Ni-NTA, Superdex-75 SEC)", "T7 sequence": "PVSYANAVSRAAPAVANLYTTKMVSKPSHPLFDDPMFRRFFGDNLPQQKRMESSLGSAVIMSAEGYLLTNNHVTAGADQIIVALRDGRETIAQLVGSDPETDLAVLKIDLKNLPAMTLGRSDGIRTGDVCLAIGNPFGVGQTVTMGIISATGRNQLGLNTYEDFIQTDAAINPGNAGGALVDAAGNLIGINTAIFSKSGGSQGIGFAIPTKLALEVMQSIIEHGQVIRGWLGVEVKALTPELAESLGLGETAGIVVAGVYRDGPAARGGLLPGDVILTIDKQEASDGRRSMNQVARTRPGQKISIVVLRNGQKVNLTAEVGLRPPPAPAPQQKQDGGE", "assay": "crystal structure; protein mixed with peptide activator (tripeptide WVF or decapeptide …) prior to crystallization; hanging-drop vapor diffusion at 18°C; molecular replacement", "conditions": "both partners purified"}}, "note": "Positions count from the first letter of the chain named.", "data": [{"binder": "B1", "values": [{"measurement": "half-maximal activation concentration of the peptide activator (cleavage of Abz-VLAG-pNA)", "setting": "AlgW-R347A", "value": 1.85, "unit": "μM"}, {"measurement": "half-maximal activation concentration of the peptide activator (cleavage of Abz-VLAG-pNA)", "setting": "AlgW-E266A", "value": 1.08, "unit": "μM"}, {"measurement": "half-maximal activation concentration of the peptide activator (cleavage of Abz-VLAG-pNA)", "setting": "AlgW-Y212A", "value": 2.12, "unit": "μM"}, {"measurement": "half-maximal activation concentration of the peptide activator (cleavage of Abz-VLAG-pNA)", "setting": "AlgW-E285A", "value": 3.84, "unit": "μM"}, {"measurement": "maximal cleavage activity of peptide-activated AlgW (Abz-VLAG-pNA)", "setting": "AlgW-E285A", "value": 57.5, "unit": "μM min^−1"}, {"measurement": "half-maximal activation concentration of the peptide activator (cleavage of Abz-VLAG-pNA)", "setting": "AlgW-L282A", "value": 2.76, "unit": "μM"}, {"measurement": "maximal cleavage activity of peptide-activated AlgW (Abz-VLAG-pNA)", "setting": "AlgW-L282A", "value": 13.2, "unit": "μM min^−1"}, {"measurement": "half-maximal activation concentration of the peptide activator (cleavage of Abz-VLAG-pNA)", "setting": "AlgW-E151A", "value": 2.99, "unit": "μM"}, {"measurement": "binding result", "setting": "[1]", "value": "binds"}]}]}
